{
  "source": "patent US20110151454",
  "biological_target": "HA-SKP2 phosphorylated in vitro by AKT (32P-SKP2) (UniProt Q13309)",
  "sequence (Q13309 whole entry, looked up)": "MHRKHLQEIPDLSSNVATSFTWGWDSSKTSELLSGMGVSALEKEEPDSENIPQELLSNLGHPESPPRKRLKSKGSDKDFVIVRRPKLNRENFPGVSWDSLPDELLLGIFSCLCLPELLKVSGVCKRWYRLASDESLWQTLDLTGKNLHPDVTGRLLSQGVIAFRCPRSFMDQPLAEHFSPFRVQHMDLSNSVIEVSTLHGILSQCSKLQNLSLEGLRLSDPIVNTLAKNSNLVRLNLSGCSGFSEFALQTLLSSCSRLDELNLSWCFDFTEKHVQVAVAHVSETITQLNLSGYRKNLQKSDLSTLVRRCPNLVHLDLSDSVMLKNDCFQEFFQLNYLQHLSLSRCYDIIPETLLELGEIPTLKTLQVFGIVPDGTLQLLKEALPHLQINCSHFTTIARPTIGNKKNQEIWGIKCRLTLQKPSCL",
  "data": [
    {"substance": "flag-PTEN", "values": [
      {"measurement": "removal of 32P from AKT-phosphorylated SKP2", "value": "neither PTEN nor PPM1H exhibited any evidence of phosphatase activity on SKP2"}
    ]}
  ]
}
